Data on two molecules can be found in patent US20250092112A1 (HEMOGENYX PHARMACEUTICALS, published 2025).

This assay concerns the target T1, SARS-CoV-2 Spike protein (wild-type), biotinylated (MyBioSource) (SARS-CoV-2, UniProt P0DTC2 16-1213).
T1 construct: also called WT SARS-CoV-2 Spike; wild-type Spike
Nature of the assay: binding of spike to ACE2-fragment constructs; assay not described.

B1: CAR-based construct 2: CD8 signal peptide+ACE2 (19-605)+CD8 hinge+CD8 TM domain+CD3ζ intracellular domain (receptor)
chain: not shown
notes: domain: CD8 hinge;domain: CD8 TM domain;domain: CD3ζ intracellular domain
Take B1: the binding result is “no binding”.

B2: CAR-based construct 1: CD8 signal peptide+ACE2 (19-358)+CD8 hinge+CD8 TM domain+CD3ζ intracellular domain (receptor)
chain: not shown
notes: as for B1
In the case of B2, the binding result is listed as “no binding”.
